# Source: PMC9936545, “Diurnal Fluctuations of Orexin-A and -B in Cynomolgus Monkey Cerebrospinal Fluid Determined by a Novel Analytical Method Using Antiadsorptive Additive Treatment Followed by Nanoflow Liquid Chromatography–High-Resolution Mass Spectrometry” (ACS Chemical Neuroscience, 2023)
# Where no end group is shown, it is not given here.
# Legend:
# [1] = Processed sample stability in autosampler; assay type: physicochemical, cynomolgus monkey; conditions: autosampler at 10 °C
# Experimental: Reproducibility was evaluated by intraday and interday assays of spiked quality control (QC) in the surrogate matrix (SQC) and in the real matrix (RQC). […] Carry-over was assessed by injecting blank samples immediately after a calibration standard at the upper limit of quantification. […] The preparation and storage of all CSF samples were conducted under the stable conditions described above.
# Working IS solutions at 500 pg/mL were prepared by diluting the IS stock solutions with a mixture of 0.1% (w/v) bovine serum albumin and 20 mM citric acid and 0.1% (w/v) Tween 80 (final concentrations) in Dulbecco’s phosphate-buffered saline (PBS) as the surrogate matrix. The surrogate matrix was used as a blank matrix for the calibration curve, SQC samples for method qualification, and blank samples. […] RQC samples, which were monkey CSF containing 20 mM citric acid and 0.1% (w/v) Tween 80, were also prepared to confirm the parallel between the surrogate and real matrices. […] Stability was evaluated based on the difference from the initial sample. The processed sample stability was evaluated using three replicates of real matrix. […] The stored samples were reinjected with freshly processed calibration samples. The processed sample stability was evaluated to compare the back-calculated concentrations. […]
# [2] = Recovery of spiked OXA and OXB during syringe and tube transfer in monkey CSF (nonspecific binding); assay type: physicochemical, cynomolgus monkey; conditions: nanoLC-HRMS; for recovery (%), spike recovery: spiked at final 100 pg/mL
# Experimental: To overcome those problems, a mixture of 20 mM citric acid and 0.1% (w/v) Tween 80 (final concentrations) was added to the monkey CSF. […] Next, recovery during syringe transfer was assessed using the following procedure (Figure S2). […] Then, the spiked CSF was collected from the tube using a needle and a syringe. To the tube, 6 μL of 1M citric acid and 3 μL of 10% (w/v) Tween 80 were added, and the 300 μL of spiked CSF was returned from the syringe to the tube. The tube, the needle, and the syringe were rinsed by pipetting with CSF containing 20 mM citric acid and 0.1% (w/v) Tween 80 (final concentrations).
# The samples were prepared in triplicate. […] The whole sample was removed from the tube using an injection needle (25G, Terumo Corporation, Tokyo, Japan) and a syringe (Terumo Corporation, Tokyo, Japan). Then, 1 M citric acid (6 μL) and 10% (w/v) Tween 80 (3 μL) were added to the empty tube to reach the final concentrations of 20 mM and 0.1%. The sample was returned from the syringe to the tube. The tube and syringe were then rinsed by pipetting five times with the CSF containing 20 mM citric acid and 0.1% (w/v) Tween 80. Finally, the whole sample was transferred to another tube. Recovery during tube transfer was assessed after repeating the procedure three times with monkey CSF containing 20 mM citric acid and 0.1% (w/v) Tween 80. The reference sample was prepared without syringe transfer, pipetting, or tube transfer. Recovery was calculated based on the quantitative values, which were the total values of endogenous and spiked orexins, in the testing samples to that in the reference sample.
# CSF collection from cynomolgus monkey (A). Eppendorf Protein LoBind® tubes (1.5mL) were used for sample preparation. The syringe and needle used for CSF collection were washed by pipetting five times with collected CSF including anti- adsorptive additives to prevent non-specific adsorption to the instruments. Recovery test during syringe and tube transfer (B). Eppendorf Protein LoBind® tubes (1.5mL) were used for sample preparation. A tube containing neat CSF spiked with the standards for
# The spiked CSF was collected from the tube using a needle and a syringe.
# The tube, the needle, and the syringe were rinsed by pipetting five times w ith CSF containing citric acid/Tween 80.
# [3] = Stability of OXA and OXB in real matrix (monkey CSF with 20 mM citric acid and 0.1% Tween 80); assay type: in vitro ADME, cynomolgus monkey
# Experimental: Reproducibility was evaluated by intraday and interday assays of spiked quality control (QC) in the surrogate matrix (SQC) and in the real matrix (RQC). […] Carry-over was assessed by injecting blank samples immediately after a calibration standard at the upper limit of quantification.
# Working IS solutions at 500 pg/mL were prepared by diluting the IS stock solutions with a mixture of 0.1% (w/v) bovine serum albumin and 20 mM citric acid and 0.1% (w/v) Tween 80 (final concentrations) in Dulbecco’s phosphate-buffered saline (PBS) as the surrogate matrix. The surrogate matrix was used as a blank matrix for the calibration curve, SQC samples for method qualification, and blank samples. […] RQC samples, which were monkey CSF containing 20 mM citric acid and 0.1% (w/v) Tween 80, were also prepared to confirm the parallel between the surrogate and real matrices. […] Stability was evaluated based on the difference from the initial sample. The processed sample stability was evaluated using three replicates of real matrix. […] The stored samples were reinjected with freshly processed calibration samples. The processed sample stability was evaluated to compare the back-calculated concentrations.
# [4] = OXA and OXB in cisternal CSF collected with and without antiadsorptive additives; assay type: in vivo, cynomolgus monkey; conditions: cisternal CSF at 17:00, collected on different days; additives 20 mM citric acid and 0.1% (w/v) Tween 80; N = 5 for OXA, N = 4 for OXB
# Experimental: LoBind tubes were used for preparing the nanoLC-HRMS samples. The IS working solution (60 μL) was mixed with a CSF, calibration curve, SQC, or RQC (50 μL) sample. Samples for the calibration curves were added with freshly prepared calibration standards (5 μL) corresponding to 2.5, 5, 20, 25, 50, 100, and 250 pg/mL, while DMSO (5 μL) was added to other samples. The samples were mixed with 10% (v/v) phosphoric acid (20 μL) and then centrifuged at 18,360g for 5 min at 4 °C. The supernatant (120 μL) was loaded into an HLB μElution plate and washed with 200 μL of methanol/water mixture (5:95, v/v). Orexins and ISs were eluted with 200 μL of acetonitrile/water/formic acid (80:20:0.1, v/v/v). After centrifugation at 4283g for 5 min at 4 °C, the supernatant (180 μL) was evaporated to dryness under a stream of nitrogen gas at room temperature. The precipitates were reconstituted in 40 μL of acetonitrile/water/trifluoroacetic acid (TFA) (4:96:0.01, v/v/v). After centrifugation at 12,000g for 10 min at 4 °C, the supernatant (5 μL) was used for nanoLC-HRMS.
# NanoLC-HRMS was performed on an EASY-nLC 1200 system (Thermo Fisher Scientific, Inc., Waltham, MA) and a Q Exactive HF-X Orbitrap mass spectrometer (Thermo Fisher Scientific) equipped with an electrospray ionization interface. […]
substance,measurement,setting,value
"Orexin-A (QPLPDCCRQKTCSCRLYELLHGAGNHAAGILTL; not fully specified; ends and bridges not checked; UniProt O43612 34-66, looked up) [OXA, 33-amino acid peptide with N-terminal pyroglutamylation, amidation of the C-terminal leucine, and two intramolecular disulfide bridges]",time stable in autosampler (processed sample stability),"[1]; processed real-matrix samples, reconstituted in acetonitrile/water/TFA (4:96:0.01), three replicates",at least 48 h
same,"percent remaining after 48 h, difference from the initial analysis","[1]; processed samples, 48 h, three replicates of real matrix, within ±",≤ 15%
same,"recovery (%), tube transfer (3 times)","[2]; monkey CSF containing 20 mM citric acid/0.1% (w/v) Tween 80, three tube transfers, LoBind tubes, mean ± SD, N = 3",105.2 ± 12.1%
same,"recovery (%), syringe and tube transfer","[2]; monkey CSF spiked with OXA and OXB (3 μL of 10 ng each/mL in DMSO + 297 μL CSF), LoBind tube, 25G needle and syringe, 20 mM citric acid/0.1% (w/v) Tween 80 added after syringe collection, rinsed by pipetting five times, vs reference sample, mean ± SD, N = 3",100.6 ± 9.4%
same,"recovery (%), spike recovery","[2]; monkey CSF with 20 mM citric acid/0.1% (w/v) Tween 80, mean ± SD, N = 3",107.1 ± 3.8%
same,recovery,[2]; monkey CSF with addition of 0.01% (v/w) Tween 80 alone,106.1%
same,"recovery (%), spike recovery","[2]; neat monkey CSF, no additives, mean ± SD, N = 3",41.6 ± 3.9%
same,percent difference in QC samples for stability evaluation from the initial sample,"[3]; freeze–thaw (3 cycles, −80 °C), room temperature 2 h, −80 °C 60 days, real matrix QC in triplicate, within ±",≤ 15%
same,"stability in real matrix, three freeze–thaw cycles","[3]; monkey CSF with 20 mM citric acid and 0.1% (w/v) Tween 80, unspiked and spiked (25 and 125 pg/mL) QC samples in triplicate, three freeze–thaw cycles at −80 °C, nanoLC-HRMS",stable
same,stability in real matrix at room temperature,"[3]; monkey CSF with 20 mM citric acid and 0.1% (w/v) Tween 80, unspiked and spiked QC samples in triplicate, room temperature for 2 h, nanoLC-HRMS",stable
same,stability in real matrix at −80 °C,"[3]; monkey CSF with 20 mM citric acid and 0.1% (w/v) Tween 80, unspiked and spiked QC samples in triplicate, −80 °C for 60 days, nanoLC-HRMS",stable
same,"concentration ratios between samples without and with the antiadsorptive additives, mean",[4],30.7%
